According to US20130330358A1, “CRYSTAL STRUCTURE AND PEPTIDE INHIBITORS OF HAUSP DEUBIQUITINASE” (priority 2011, published 2013):

Target: HAUSP TRAF domain (HAUSP^62-205) (human)
Assay: ITC, titration against HAUSP TRAF domain, 20 °C

Binder	n (stoichiometry)	Ka [M⁻¹]
EGASTSGM (modifications not checked) [vIRF4^209-216 peptide]	0.81	
LVQELQEEKPSSSHL (modifications not checked) [MDM2^137-152 peptide]		90000
EQGPADDPGEGPSTG (modifications not checked) [EBNA1^435-449 peptide]	0.81	
